Test results reported in the nanobody polyreactivity screen of Harvey et al. (2022).

Experiment: yeast display, Sf9 membrane polyspecificity reagent, FACS + sequencing; frameworks hold sequencing errors
Method in brief: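 Nanobodies came from a synthetic yeast display library in Saccharomyces cerevisiae BJ5465, induced with galactose for 36–48 hours and stained for 1 hour at 4 °C with 10% biotinylated, detergent-solubilized Sf9 membrane reagent. Cells were enriched on streptavidin microbeads and then FACS-sorted, with low and high (top ~1%) gates set on anti-HA fluorescence for expression and streptavidin fluorescence for reagent binding. Each polyreactivity label reflects the gate a clone came from. Genes were amplified by colony PCR, sequenced by MiSeq 2 × 250 and filtered by CDR length.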

| Sequence | polyreactivity (PSR sort gate) |
| --- | --- |
| QVQLVESGGGLVQAGGSLRLSCAASGSTFVRNAMGWYRQAPGKERELVAAISRSGGRTYYADSVKGRFTISRDNAKNTVYLQMNSLKPEDTAVYYCAKKRSKPISFDYWGQGTQVTVSS | high polyreactivity |
| QVQLVESGGGLVQAGGSLRLSCAASGSTFVRNAMGWYRQAPGKERELVAAITSSGGSTYYADSVKGRFTISRDNAKNTVYLQMNSLKPEDTAVYYCAKRRYYRYDYWGQGTQVTVSS | low polyreactivity |
| QVQLVESGGGLVQAGGSLRLSCAASGSTFVRNAMGWYRQAPGKERELVAAITSSGGSTYYADSVKGRFTISRDNAMKTVYLQMNSLKPEDTAVYYCNAELGSDTANYDYWGQGTQVTVSS | low polyreactivity |
| QVQLVESGGGLVQAGGSLRLSCAASGSTFVRYAKGWYRQAPGKERELVAGISRRSGRTYYADSVKGRFTISRDNAKNTVYLQMNSLKPEDTAVYYCAARGIGGYEYWGQGTQVTVSS | high polyreactivity |
| QVQLVESGGGLVQAGGSLRLSCAASGSTFVRYAMGWYRQAPGKERELVAAIDGGGTTKYADSVKGRFTISRDNAKNTVYLQMNSLKPEDTSVYYCAADQVWGYDSWGQGTQVTVSS | low polyreactivity |
| QVQLVESGGGLVQAGGSLRLSCAASGSTFVRYAMGWYRQAPGKERELVAAISGSGGRTYYADSVKGRFTISRDNAKNTVYLQMYSLKPEDTAVYYCATSTAGGRQTVSQYRYYWGQGTQVTVSS | high polyreactivity |
| QVQLVESGGGLVQAGGSLRLSCAASGSTFVRYAMGWYRQAPGKERELVAAISSGGSRTYYADSVKGRFTISRDNAKNTVYLQMNSLKPEDTAVYYCATVSTYYHYRRYDYWGQGTQVTVSS | high polyreactivity |
| QVQLVESGGGLVQAGGSLRLSCAASGSTFVRYDMGWYRQAPGKERELVADISWSGVSTYADSVKGRFTISRDNAKNTVYLQMNSLKPEDTAVYYCAKDSDLYQRGGYYWGQGTQVTVSS | low polyreactivity |
| QVQLVESGGGLVQAGGSLRLSCAASGSTFVSNAMGWYRPAPGKERELVASISQSGGGTDYADSVKGRFTISRDNAKNTVYLQMNSLKPEDTAVYYCAADRVPVQAPYDYWGQGTQVTVSS | high polyreactivity |
| QVQLVESGGGLVQAGGSLRLSCAASGSTFVSNAMGWYRQAPGKERELVATITTSGGSTYYADSVKGRFTISRDNAKNTVYLQMNSLKPEDTAVYYCNADYDFNFIDWVYFLYDYWGQGTQVTVSS | low polyreactivity |
| QVQLVESGGGLVQAGGSLRLSCAASGSTFVSNAMGWYSQAPGKERELVAAISSSDDSTYYADSVKGRFTLSRDKAKNTVYLQMISLKPEDTAVYYCAAESDSDQHDGDYWGQGTQVTVSS | low polyreactivity |
| QVQLVESGGGLVQAGGSLRLSCAASGSTFVSYAMGWSRQAPGKERELVAAISISDSSTYYADSVKGRFTISRDNAKNTVFLQMNSLKPEDTAVYYCNRYDYWGQGTQVTVSS | low polyreactivity |
| QVQLVESGGGLVQAGGSLRLSCAASGSTFVSYAMGWYRQAPGKEREFVAAITWSGGSTYYADSVKGRFTISRDNAKNTVYLQMNSLKPEDTAVYDCAAATYRQQWHYYWGQGTQVTVSS | high polyreactivity |
| QVQLVESGGGLVQAGGSLRLSCAASGSTFVSYAMGWYRQAPGKERELVAAIRTTSGSTYYADSVKGRFTISRDNAKNTVYLQMNSLKPEDTAVYYCAAAGRGPSFRRYDYWGQGTQVTVSS | high polyreactivity |
| QVQLVESGGGLVQAGGSLRLSCAASGSTFVSYAMGWYRQAPGKERELVAAISISDSSTYYADSVKGRFTISRDNAKKTVYLQMNSLKPEDTAVYYCNRYDYWGQGTQVTVSS | low polyreactivity |
| QVQLVESGGGLVQAGGSLRLSCAASGSTFVSYAMGWYRQAPGKERELVAAISTSGGTTYYADSVKGRFTISRDNAKNTVYLQMNSLKPEDTAVYYCAAYDFKYKGYDYWGQGTQVTVSS | high polyreactivity |

| Sequence | polyreactivity (PSR sort gate) |
| --- | --- |
| QVQLVESGGGLVQAGGSLRLSCAASGSTFVSYAMGWYRQAPGKEREMVASISSGDSTYADSVKGRFTISRDNAKNTVYLQMNSLKREDTAVYYCNVGNEGSYGFPVTYDYWGQGSQVTVSS | low polyreactivity |
| QVQLVESGGGLVQAGGSLRLSCAASGSTFVSYVMGWYRQAHGKERELVATSSGRAGRTYYADSVKGRFTISRDNAKNTVSLQMNSLKPEDTAVYYCNAGQWRYPGLYYYWGQATQVTVSS | high polyreactivity |
| QVQLVESGGGLVQAGGSLRLSCAASGSTFVTNAMGWYRQAPGKERELVAAITSGAGTYYADSVKGRFTISRDNAKNTVYLQMNSLKPEDTAVYYCAARRYYSRGRYRFGYWGQGTQVTVSS | high polyreactivity |
| QVQLVESGGGLVQAGGSLRLSCAASGSTFVTNDMGWYRQAPAKERELVAAISSGTSTNYADSVKGRFTISRDNAKNTVYLQMNSLKPEDTAVYYCAADSLKRYDYWGHGTQVTVSS | low polyreactivity |
| QVQLVESGGGLVQAGGSLRLSCAASGSTFVTYAMGWYRQAPGKERELVAAIDSGGNTNYADSVKGRFTISRDNAKNTVYLQMNSLKPEDTAVYYCAVRPYELNRLDDQPGGDDYWGQGTQVTVSS | low polyreactivity |
| QVQLVESGGGLVQAGGSLRLSCAASGSTFVTYAMGWYRQAPGKERELVATITTSGGSTYYADSVKGRFTISRDNAKNTVYLQMNSLKPEDTAVYYCAADYYSNYSRFDYWGQGTQVTVSS | low polyreactivity |
| QVQLVESGGGLVQAGGSLRLSCAASGSTFVVNAMGWYRQAPGKERELVAAIRGSAGSTYYADSVKGRFTISRDNAKNTVYLQMNSLKPEDTAVYYCAAYYRRYKSKYDYWGQGTQVTVSS | high polyreactivity |
| QVQLVESGGGLVQAGGSLRLSCAASGSTFVVNAMGWYRQAPGKERELVAAIRIIGGSTYYADSVKGRFTISRDNAKNTVYLQMKSLKPEDTAVYYCVYSGYFPHQSKMDYWGQGTQVTVSS | low polyreactivity |
| QVQLVESGGGLVQAGGSLRLSCAASGSTFVVNAMGWYRQAPGKERELVAAITQSGGSTFYADSVKGRFTISRDNAKNTVYLQINSLKPEDTAVYYWGQCTQVTVSS | low polyreactivity |
| QVQLVESGGGLVQAGGSLRLSCAASGSTFVVYAMGWSRQAPGKERELVAAISTSDTSTYYADSVKGRFTISRDNAKNTVYLQMNSLKPEDTAVYYCAADGTYVYINEYEYWGQGTQVTVSS | low polyreactivity |
| QVQLVESGGGLVQAGGSLRLSCAASGSTFVWNAMGWYRQAPGQERELVAAITWSGGSTYYADSVKGRFTISRDNAKNTVYLQMNSLIPEDTAVYYGNAGPVVRRWDAVGYDYWGQGTQVTVSS | low polyreactivity |
| QVQLVESGGGLVQAGGSLRLSCAASGSTFVYNAMGWYRQAPGKEREFVAVINWSGGRTYADSVKGRFTISRDNAKNTVYLQMNSLKPEDTAVYYCNARRRTGYRPAMDYWGQGTQVTVSS | high polyreactivity |
| QVQLVESGGGLVQAGGSLRLSCAASGSTFVYNAMGWYRQAPGKERELVAAIRTTGTGTYYADSVKGRFTISRDNAKNTVYLQMNSLKPEDTAVYYCATDYNYWKLDFGYWGQGTQVTVSS | high polyreactivity |
| QVQLVESGGGLVQAGGSLRLSCAASGSTFVYNAMGWYRQAPGKERELVAAITNSGSTYYADSVKGRFTISRDNAKNTVYLQMNSLKPEDTAVYDCAARSRVYWARSGYWGQGTQVTVAS | low polyreactivity |
| QVQLVESGGGLVQAGGSLRLSCAASGSTFVYYAMGSYIQAPGKERELVAAISSGGNTKYADSVKGRFTISRDNAMNTVYLHMNRLKPEDTAVYYCARETQSYFDHDYWGQGTQVTVSS | low polyreactivity |
| QVQLVESGGGLVQAGGSLRLSCAASGSTFVYYAMGWYRKAPGKERELVAAITSSGGSTHYADSVKGRFTISRDNAKNTVYLQMNSLKPEDTAVYYCAVGALGVYGHYGYWGQGTQVTVSS | low polyreactivity |
